In data set [1] the target is T1, streptavidin (magnetic beads) (UniProt P22629 P22629:25-183). The data set can be described thus: pulldown; beads without bFab. The following applies: tags: immobilised on magnetic beads; chain copies: 4. Here is the method: Aptamers were incubated with bFab (2.5-fold molar excess), then bound to SAMBs. Supernatants were taken, and the SAMBs washed 3 times. Bound material was eluted with 0.1 M NaOH, and then precipitated, washed, dried, and reconstituted before loading samples on a denaturing acrylamide gel. […] M is a size marker (top band 60 bases; aptamer bands 85 bases).
T1 sequence (P22629 25-183, one chain of several): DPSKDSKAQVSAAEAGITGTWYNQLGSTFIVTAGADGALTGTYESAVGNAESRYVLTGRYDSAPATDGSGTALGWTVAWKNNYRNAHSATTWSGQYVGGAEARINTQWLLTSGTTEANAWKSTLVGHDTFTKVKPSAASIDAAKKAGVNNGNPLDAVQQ
To assess binding of 10th-cycle singlet aptamers to the selective agent (the Fab target), direct binding assays were carried out. Here, single-stranded aptamer preparations (self-annealed as usual) were incubated with or without biotinylated Fab fragments in PBSM, followed by adsorption onto streptavidin magnetic beads. After this incubation period, the beads were magnetically separated, and the supernatants retained. After 3 washes of the beads, the bound material was eluted by means of 2×20 second incubations with 100 μl of 0.1 M NaOH, with the eluates immediately precipitated with 0.3 M sodium acetate and 3 volumes of ethanol. Pellets were washed with 70% ethanol, and dried. After reconstitution in 5 μl of TE, 1 μl samples were denatured in formamide and run on 10% urea (denaturing) gels. […]

Data set [2] deals with T1, streptavidin (magnetic beads). Description: pulldown; beads without bFab. The following applies: tags: immobilised on magnetic beads; chain copies: 4. Here is the method:
Pellets were washed with 70% ethanol, and dried. After reconstitution in 5 μl of TE, 1 μl samples were denatured in formamide and run on 10% urea (denaturing) gels. Results of such an experiment with the candidate singlet aptamers 228/10AptR1 (see, FIG. 27 and FIG. 29) and 229/10AptL3 (see, FIG. 29) and a specific arbitrary unselected control Right-aptamer (#136; sequence corresponds to: GCAAAGACATCTGGA […] AAGGAGACTTAGAGGC (SEQ ID NO:6); where underlining indicates the 40-mer aptamer tract; remaining sequences are primer sites) are shown in FIG. 30. The supernatants from the 228/10AptR1 and 229/10AptL3 binding (but not #136) were depleted only in the presence of biotinylated Fab. Moreover, the eluted material from biotinylated Fab on the streptavidin magnetic beads was highly enriched for aptamer bands only for 228/10AptR1 and 229/10AptL3 (see, FIG. 30).
Despite successful in situ assembly of binary aptamers upon the target to which they were bound (as in Example 1), it could not be assumed that binary aptamers formed in solution would be capable of binding the same targets. This was assessed using the same aptamers as used in direct binding tests (Example 3; 228/10AptR1 and 229/10AptL3), but where the aptamers were initially ligated together by means of the same splint oligonucleotide as used in Example 1. […]
This is another data set of the same source.

B1: aptamer 229 (10AptL3) (ssDNA)
DNA: CATCTCCACCTCCATAACCCACGGACGGGCGTCTAGAGAAGTAGGCTGAAATATCGTGGCGAGAACGAGCTGTGTCCTGAAGAAA
As to B1, the binding result in data set [1] is “no binding”.

B2: binary aptamer 229-228 (ligated, 170 nt) (ssDNA)
DNA: CATCTCCACCTCCATAACCCACGGACGGGCGTCTAGAGAAGTAGGCTGAAATATCGTGGCGAGAACGAGCTGTGTCCTGAAGAAAGCAAAGACATCTGGACACGCCACTAAGTGGAGGTGATCTGTACTTCATTTATGAGATCGCGGCGAGGAGAAGGAGACTTAGAGGC
Turning to B2, the binding result in data set [2] was “no binding”.

B3: aptamer 228 (10AptR1) (ssDNA)
DNA: GCAAAGACATCTGGACACGCCACTAAGTGGAGGTGATCTGTACTTCATTTATGAGATCGCGGCGAGGAGAAGGAGACTTAGAGGC
For the molecule B3, in data set [1], the binding result is recorded as “no binding”.

For the origin of these results see patent US20170335314, “Methods For Using Nucleic Acid Aptamers For Directed Templated Assembly” (TriBiotica LLC, published 2017).
